{
  "source": "paper PMC9848473",
  "molecular_target": "Bacillus subtilis Rel N-terminal domain region (RelBs^NTD; residues 1 to 373) (B. subtilis)",
  "test": "ITC; DarB or DarB variant (200 uM) in the syringe titrated into RelBs^NTD or variant (15 uM) in the cell; 25 °C; 50 mM Hepes pH 7.5, 500 mM KCl, 500 mM NaCl, 10 mM MgCl2, 1 mM TCEP, 0.002% mellitic acid",
  "data": [
    {"binder": "Bacillus subtilis DarB E34R (natural protein) MISLQSDQLLEATVGQFMIEADKVAHVQVGNNLRHALLVLTKTGYTAIPVLDPSYRLHGLIGTNMIMNSIFGLERIEFEKLDQITVEEVMLTDIPRLHINDPIMKGFGMVINNGFVCVENDEQVFEGIFTRRVVLKELNKHIRSLNK", "values": [
      {"measurement": "Kd", "result": 10.6, "unit": "µM"}
    ]},
    {"binder": "Bacillus subtilis DarB E74G/R75G (natural protein) MISLQSDQLLEATVGQFMIEADKVAHVQVGNNLEHALLVLTKTGYTAIPVLDPSYRLHGLIGTNMIMNSIFGLGGIEFEKLDQITVEEVMLTDIPRLHINDPIMKGFGMVINNGFVCVENDEQVFEGIFTRRVVLKELNKHIRSLNK", "values": [
      {"measurement": "Kd", "result": 8.9, "unit": "µM"}
    ]}
  ]
}
